Source: the RNAGym collection of RNA variant scans (doi:10.1093/nar/gkz1192)

B1: CPEB3 Ribozyme (parent)
chain: UAACAGGGGGCCACAGCAGAAGCGUUCACGUCGCAGCCCCUGUCAGAUUCUGGUGAAUCUGCGAAUUCUGCUGUAUAUCUC

Variants of: B1
Assay: self-cleavage, relative activity (ratio to wild type); higher = more cleavage; in vitro, sequencing
Method in brief: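 Relative activity was defined as the cleaved/total read fraction for a variant divided by the same fraction for the unmutated ribozyme. CPEB3 self-cleaving ribozyme libraries were made by rounds of error-prone PCR, barcoded, and transcribed in vitro with T7 RNA polymerase for 5 hours at 37°C, and cleavage ran through transcription plus a 15 min DNase I step before EDTA. Illumina sequencing of template-switched reverse transcripts gave the reads, and DNA sequencing mapped the barcodes. Averages come from three batches, using variants with at least 5 reads.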

Row | Variant | self-cleavage
1 | UAACAGGGGGCCACAGCAGAAGCGUUCACGUCGCAGGCCCUGUCAGAUUCUGGUGAAUCUGGGAAUUCUGCUGUAUAUCUC | 0.5
2 | UAACAGGGGGCCACAGCAGAAGCGUUCACGUCGCAGACCCUGUCAGAUUCUGGUGAAUCUGCGAAUGCUGCUGUAUAUCUC | 0.17
3 | UAACAGGGGGCCACAGCAGAAGCGUUCACGUCGCAGACCCUGUCAGAUUCUGGUGAAUCUGCGAAUCCUGCUGUAUAUCUC | 0.13
4 | UAACAGGGGGCCACAGCAGAAGCGUUCACGUCGCAGACCCUGUCAGAUUCUGGUGAAUCUGCGAAUACUGCUGUAUAUCUC | 0.14
5 | UAACAGGGGGCCACAGCAGAAGCGUUCACGUCGCAGACCCUGUCAGAUUCUGGUGAAUCAGCGAAUUCUGCUGUAUAUCUC | 0.14
6 | UAACAGGGGGCCACAGCAGAAGCGUUCACGUCGCAGACCCUGUCAGAUUCUGGUGAAUCCGCGAAUUCUGCUGUAUAUCUC | 0.09
7 | UAACAGGGGGCCACAGCAGAAGCGUUCACGUCGCAGGCCCUGCCAGAUUCUGGUGAAUCUGCGAAUUCUGCUGUAUAUCUC | 0.29
8 | UAACAGGGGGCCACAGCAGAAGCGUUCACGUCGCAGACCCUGUCAGAAUCUGGUGAAUCUGCGAAUUCUGCUGUAUAUCUC | 0.12
9 | UAACAGGGGGCCACAGCAGAAGCGUUCACGUCGCAGACCCUGUCAGACUCUGGUGAAUCUGCGAAUUCUGCUGUAUAUCUC | 0.41
10 | UAACAGGGGGCCACAGCAGAAGCGUUCACGUCGCAUCCCCUGUCAGAUUCUGGUGAAUCUGCGAAUUCUGCUGUAUAUCAC | 0.29
11 | UAACAGGGGGCCACAGCAGAAGCGUUCACGUCGCAUCCCCUGUCAGAUUCUGGUGAAUCUGCGAAUUCUGCUGUAUAUCCC | 0.46
12 | UAACAGGGGGCCACAGCAGAAGCGUUCACGUCGCAGACCCUGUCAGAUUCUGGUGAAUUUGCGAAUUCUGCUGUAUAUCUC | 0.24
13 | UAACAGGGGGCCACAGCAGAAGCGUUCACGUCGCAGGCCCUGUCAGAUUCUGGUGAAUCUGCGAAUUCUCCUGUAUAUCUC | 0.2
14 | UAACAGGGGGCCACAGCAGAAGCGUUCACGUCGCAGACCCUGUCAGAUUCUGGUGAAUCUGCGAAUUCUGCUGUAUACCUC | 0.35
15 | UAACAGGGGGCCACAGCAGAAGCGUUCACGUCGCAGACCCUGUCAGAUUCUGGUGAAUCUGCGAAUUCUGCUGUAUAACUC | 0.2
16 | UAACAGGGGGCCACAGCAGAAGCGUUCACGUCGCAGACCCUGUCAGAUUCCGGUGAAUCUGCGAAUUCUGCUGUAUAUCUC | 0.17
17 | UAACAGGGGGCCACAGCAGAAGCGUUCACGUCGCAGACCCUGUCAGAUUCUUGUGAAUCUGCGAAUUCUGCUGUAUAUCUC | 0.35

Row | Variant | self-cleavage
18 | UAACAGGGGGCCACAGCAGAAGCGUUCACGUCGCAGGCCCUGUCAGAUUCUGGUGAAUCUGCGAAUUAUGCUGUAUAUCUC | 0.18
19 | UAACAGGGGGCCACAGCAGAAGCGUUCACGUCGCAGACACUGUCAGAUUCUGGUGAAUCUGCGAAUUCUGCUGUAUAUCUC | 0.29
20 | UAACAGGGGGCCACAGCAGAAGCGUUCACGUCGCAGACCCUGUCAGAUUCUGGUGAAUCUGCGAAUUCUGUUGUAUAUCUC | 0.2
21 | UAACAGGGGGCCACAGCAGAAGCGUUCACGUCGCAUCCCCUGUCAGAUUCUGGUGAAUCUGCGAAUUCUGCUGUAUAACUC | 0.43
22 | UAACAGGGGGCCACAGCAGAAGCGUUCACGUCGCAUCCCCUGUCAGAUUCUGGUGAAUCUGCGAAUUCUGCUGUAUACCUC | 0.17
23 | UAACAGGGGGCCACAGCAGAAGCGUUCACGUCGCAGACCCUGUCAGAUUCUGGUGAAUCUGCGAUUUCUGCUGUAUAUCUC | 0.36
24 | UAACAGGGGGCCACAGCAGAAGCGUUCACGUCGCAGACCCUGUCAGAUUCUGGUGAAUCUGCGAGUUCUGCUGUAUAUCUC | 0.16
25 | UAACAGGGGGCCACAGCAGAAGCGUUCACGUCGCAGGCCCUGUAAGAUUCUGGUGAAUCUGCGAAUUCUGCUGUAUAUCUC | 0.39
26 | UAACAGGGGGCCACAGCAGAAGCGUUCACGUCGCAGACCCUGUCAGAUCCUGGUGAAUCUGCGAAUUCUGCUGUAUAUCUC | 0.11
27 | UAACAGGGGGCCACAGCAGAAGCGUUCACGUCGCAGACCCUGUCAGAUACUGGUGAAUCUGCGAAUUCUGCUGUAUAUCUC | 0.13
28 | UAACAGGGGGCCACAGCAGAAGCGUUCACGUCGCAUCCCCUGUCAGAUUCUGGUGAAUCUGCGAAUUCUGCUGUACAUCUC | 0.2
29 | UAACAGGGGGCCACAGCAGAAGCGUUCACGUCGCAUCCCCUGUCAGAUUCUGGUGAAUCUGCGAAUUCUGCUGUAAAUCUC | 0.2
30 | UAACAGGGGGCCACAGCAGAAGCGUUCACGUCGCAGACCCUGUCAGAUUCUGGUGAGUCUGCGAAUUCUGCUGUAUAUCUC | 0.2
31 | UAACAGGGGGCCACAGCAGAAGCGUUCACGUCGCAGGCCCUGUCAGAUUCUGGUGAAUCUGCGAAUUCUGCUGUUUAUCUC | 1.13
32 | UAACAGGGGGCCACAGCAGAAGCGUUCACGUCGCAGGCCCUGUCAGAUUCUGGUGAAUCUGCGAAUACUGCUGUAUAUCUC | 0.48
33 | UAACAGGGGGCCACAGCAGAAGCGUUCACGUCGCAGACCCUGUCCGAUUCUGGUGAAUCUGCGAAUUCUGCUGUAUAUCUC | 0.1
34 | UAACAGGGGGCCACAGCAGAAGCGUUCACGUCGCAGACCCUGUCUGAUUCUGGUGAAUCUGCGAAUUCUGCUGUAUAUCUC | 0.23
